Measurements published in US20220056131A1 (MacroGenics, published 2022).
Changes are numbered by the printed parent chain. Names may count otherwise.

Tests used:
[1] = biological target: soluble human CD3 (extracellular domain of human CD3) (human); experiment: BIACORE SPR, capture with anti-EK antibodies, bivalent fit
[2] = biological target: soluble human CD3 (extracellular domain of human CD3) (human); experiment: capture ELISA, plate coated with 1 µg/ml soluble human CD3, OD450
[3] = biological target: soluble human CD3 (extracellular domain of human CD3) (human); experiment: capture ELISA, plate coated with 1 µg/ml shCD3, OD450
[4] = biological target: T1, soluble cynomolgus monkey CD3 (cynomolgus monkey); experiment: BIACORE SPR, capture with anti-EK antibodies, bivalent fit
T1 chain: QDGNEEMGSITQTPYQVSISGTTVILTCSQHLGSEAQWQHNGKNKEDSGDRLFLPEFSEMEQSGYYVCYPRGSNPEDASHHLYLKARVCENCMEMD

[5] = biological target: T1, soluble cynomolgus monkey CD3; experiment: capture ELISA, plate coated with 1 µg/ml soluble cynomolgus monkey CD3, OD450
[6] = biological target: soluble human CD3 (extracellular domain of human CD3) (human); experiment: capture ELISA, plate coated with 0.5 µg/ml shCD3, OD450
[7] = biological target: T1, soluble cynomolgus monkey CD3; experiment: bispecific binding ELISA with soluble cynomolgus CD3 and soluble human B7H3 (sheet title 'sCynCD3-shB7H3 Bispecific Binding Elisa'); format not described, OD450
[8] = biological target: T2, epidermal growth factor receptor (EGFR) on A498 kidney cancer cells or A431 epidermoid carcinoma cells (UniProt P00533 25-1210, limits assumed); experiment: flow cytometry, binding to A498 kidney cancer cells, MFI
T2 construct: whole, on cells

Sequence of soluble human CD3 (extracellular domain of human CD3) (human) (P07766 23-126, chain 1 of 2): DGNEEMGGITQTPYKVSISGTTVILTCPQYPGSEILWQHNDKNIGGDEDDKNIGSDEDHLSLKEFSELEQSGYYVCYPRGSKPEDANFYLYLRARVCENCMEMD
Sequence of soluble human CD3 (extracellular domain of human CD3) (human) (P04234 22-105, chain 2 of 2, further chain): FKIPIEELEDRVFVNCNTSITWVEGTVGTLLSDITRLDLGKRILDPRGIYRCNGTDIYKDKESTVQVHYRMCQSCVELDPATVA

B1: chimeric variant of mAb2 antibody (ch-mAb2) (antibody, V domains shown)
VH: EVKLLESGGGLVQPKGSLKLSCAASGFTFNTYAMNWVRQAPGKGLEWVARIRSKYNNYATYYADSVKDRFTISRDDSQSILYLQMNNLKTEDTAMYYCVRHGNFGNSYVSWFAYWGQGTLVTVSA
VL: QAVVTQESALTTSPGETVTLTCRSSTGAVTTSNYANWVQEKPDHLFTGLIGGTNKRAPGVPARFSGSLIGDKAALTITGAQTEDEAIYFCALWYSNLWVFGGGTKLTVLG
notes: also called chimeric mAb2; mAb2 chimeric antibody
Kd [1]: 14.7 nM
kon [1]: 170000 M⁻¹ s⁻¹
EC50 (read off the curve) [2]: 0.03 µg/mL
EC50 (read off the curve) [3]: 0.03 µg/mL
Kd [4]: 14.4 nM
kon [4]: 160000 M⁻¹ s⁻¹
EC50 (read off the curve) [5]: ~0.03 µg/mL
EC50 (read off the curve) [6]: 0.03 µg/mL

B2: antibody having an h-mAb2 VL-6 light chain and the heavy chain of the mAb2 chimeric antibody (antibody, V domains shown)
VH: B1 VH
VL: QAVVTQEPSLTVSPGGTVTLTCRSSTGAVTTSNYANWVQQKPGQAPRGLIGGTNKRAPWTPARFSGSLLGGKAALTITGAQAEDEADYYCALWYSNLWVFGGGTKLTVLG
notes: also called h-mAb2 VL-6 light chain antibody (Kabat F36V and T46G)
EC50 (read off the curve) [2]: 0.03 µg/mL
EC50 (read off the curve) [5]: ~0.03 µg/mL
EC50 (read off the curve) [6]: 0.04 µg/mL

B3: antibody having an h-mAb2 VL-8 light chain and the heavy chain of the mAb2 chimeric antibody (antibody, V domains shown)
VH: B1 VH
VL: B2 VL with Q40E
EC50 (read off the curve) [3]: 0.03 µg/mL
EC50 (read off the curve) [6]: 0.04 µg/mL

B4: h-mAb2VH-8 HC / ch-mAb2 LC (antibody, V domains shown)
VH: B1 VH with K3Q, L5V, K15G, K19R, Q78K, S79N, I80S, N87S, M95V, A125S
VL: B1 VL
notes: also called ch-mAb2 LC / h-mAb2VH-8 HC
EC50 (read off the curve) [2]: 0.03 µg/mL
EC50 (read off the curve) [5]: ~0.03 µg/mL

B5: humanized mAb2 (h-mAb2) (antibody, V domains shown)
VH: B1 VH with K3Q, L5V, K15G, K19R, Q78K, S79N, I80S, N87S, M95V, A125S
VL: B2 VL
notes: also called humanized variant of mAb2
Kd [1]: 20 nM
kon [1]: 190000 M⁻¹ s⁻¹
EC50 (read off the curve) [2]: 0.03 µg/mL
Kd [4]: 24.1 nM
kon [4]: 170000 M⁻¹ s⁻¹
EC50 (read off the curve) [5]: ~0.03 µg/mL

B6: B7-H3-2-h-mAb2 DART diabody (bispecific antibody)
chain 1: DIQLTQSPSFLSASVGDRVTITCKASQNVDTNVAWYQQKPGKAPKALIYSASYRYSGVPSRFSGSGSGTDFTLTISSLQPEDFATYYCQQYNNYPFTFGQGTKLEIKGGGGSGGGGEVQLVESGGGLVQPGGSLRLSCAASGFTFNTYAMNWVRQAPGKGLEWVARIRSKYNNYATYYADSVKDRFTISRDDSKNSLYLQMNSLKTEDTAVYYCVRHGNFGNSYVSWFAYWGQGTLVTVSSGGCGGGEVAALEKEVAALEKEVAALEKEVAALEK
chain 2: QAVVTQEPSLTVSPGGTVTLTCRSSTGAVTTSNYANWVQQKPGQAPRGLIGGTNKRAPWTPARFSGSLLGGKAALTITGAQAEDEADYYCALWYSNLWVFGGGTKLTVLGGGGSGGGGEVQLVESGGGLVQPGGSLRLSCAASGFTFSSFGMHWVRQAPGKGLEWVAYISSDSSAIYYADTVKGRFTISRDNAKNSLYLQMNSLRDEDTAVYYCGRGRENIYYGSRLDYWGQGTTVTVSSGGCGGGKVAALKEKVAALKEKVAALKEKVAALKE
notes: Two-chain diabody, hBRCA84D (anti-B7-H3) x h-mAb2
EC50 (read off the curve) [7]: ~0.03 µg/mL

B7: 4420 x huXR32 (bispecific antibody)
4420VL-hXR32VH-E coil: DVVMTQTPFSLPVSLGDQASISCRSSQSLVHSNGNTYLRWYLQKPGQSPKVLIYKVSNRFSGVPDRFSGSGSGTDFTLKISRVEAEDLGVYFCSQSTHVPWTFGGGTKLEIKGGGSGGGGEVQLVESGGGLVQPGGSLRLSCAASGFTFNTYAMNWVRQAPGKGLEWVARIRSKYNNYATYYADSVKDRFTISRDDSKNSLYLQMNSLKTEDTAVYYCVRHGNFGNSYVSWFAYWGQGTLVTVSSGGCGGGEVAALEKEVAALEKEVAALEKEVAALEK
hXR32VL-4420VH-K coil: QAVVTQEPSLTVSPGGTVTLTCRSSTGAVTTSNYANWVQQKPGQAPRGLIGGTNKRAPWTPARFSGSLLGGKAALTITGAQAEDEADYYCALWYSNLWVFGGGTKLTVLGGGGSGGGGEVKLDETGGGLVQPGRPMKLSCVASGFTFSDYWMNWVRQSPEKGLEWVAQIRNKPYNYETYYSDSVKGRFTISRDDSKSSVYLQMNNLRVEDMGIYYCTGSYYGMDYWGQGTSVTVSSGGCGGGKVAALKEKVAALKEKVAALKEKVAALKE
binding result [8]: no binding
